Here are results for one substance from publication PMC11799418.

The target of assay [1] is Endophilin B1 (human) (UniProt Q9Y371). As to the kind of experiment: cryo-EM structure; endophilin B1 incubated with MSP2N2 nanodiscs at molar ratio 1:2 (MSP2N2:endophilin B1); cryo-EM data split into 2 classes.
The target is the same in assay [2]. As to the kind of experiment: SAXS; in solution, 8 and 16 μM endophilin B1 (0.34 and 0.69 mg/ml); 150 mM NaCl, 20 mM HEPES, 1 mM TCEP, 0.5 mM DTT, pH 8.1, 4 °C; monomer to dimer.
The target is the same in assay [3]. The assay can be described thus: cryo-EM structure; endophilin B1 incubated with His6-MSP2N2 nanodiscs (90% DOPS, 10% 14:0 cardiolipin), molar ratio 1:10 (MSP2N2:endophilin B1), SEC peak vitrified; single-particle reconstruction of membrane-bound endophilin B1 on bicelles, cryoSPARC and cryoDRGN.

With “Endophilin B1 (from UniProt Q9Y371 1-365) (natural protein)”, the stoichiometry N in the assay with Endophilin B1 (human) [1] and in the assay with Endophilin B1 (human) [2] was 2 throughout. In the assay with Endophilin B1 (human) [3], the dimers bound per bicelle was 6 dimers.

As a reminder, the stoichiometry N is a count of units in the complex or per binding partner.
